The values below come from article PMC9727770 (2023).

The target in the experiment is RBD of the SARS-CoV-2 L strain spike protein, soluble (SARS-CoV-2 (L strain), UniProt P0DTC2 319-541). In words: BLI. (BLI is a label-free optical method that tracks binding on a fibre tip over time.)

B1: Eli Lilly Ly-CoV016 (antibody, V domains shown)
VH: EVQLVESGGGLVQPGGSLRLSCAASGFTVSSNYMSWVRQAPGKGLEWVSVIYSGGSTFYADSVKGRFTISRDNSMNTLFLQMNSLRAEDTAVYYCARVLPMYGDYLDYWGQGTLVTVSS
VL: not shown
The molecule B1 yielded a Kd of 203 nM.

B2: Regn-10933 (antibody, V domains shown)
VH: QVQLVESGGGLVKPGGSLRLSCAASGFTFSDYYMSWIRQAPGKGLEWVSYITYSGSTIYYADSVKGRFTISRDNAKSSLYLQMNSLRAEDTAVYYCARDRGTTMVPFDYWGQGTLVTVSS
VL: DIQMTQSPSSLSASVGDRVTITCQASQDITNYLNWYQQKPGKAPKLLIYAASNLETGVPSRFSGSGSGTDFTFTISGLQPEDIATYYCQQYDNLPLTFGGGTKVEIK
In the case of B2, the dissociation constant Kd stood at 14.4 nM.

B3: Regn-10987 (antibody, V domains shown)
VH: QVQLVESGGGVVQPGRSLRLSCAASGFTFSNYAMYWVRQAPGKGLEWVAVISYDGSNKYYADSVKGRFTISRDNSKNTLYLQMNSLRTEDTAVYYCASGSDYGDYLLVYWGQGTLVTVSS
VL: QSALTQPASVSGSPGQSITISCTGTSSDVGGYNYVSWYQQHPGKAPKLMIYDVSKRPSGVSNRFSGSKSGNTASLTISGLQSEDEADYYCNSLTSISTWVFGGGTKLTVL
As for B3, the dissociation constant Kd is 74.2 nM.

A word on the Kd: it is the free concentration of one partner at which half of the binding sites on the other are occupied at equilibrium, for simple one-to-one binding.
